This is an account of results in patent publication US6641809.

The IC50 is the point on the concentration scale where inhibition reaches its midpoint.

For assay [1], the target named is CD28 receptor (human) (UniProt P10747). Put plainly: cell-based or functional assay.
Assay [2] shares this target. Nature of the assay: adhesion of B7-transfected COS cells to CD28+ CHO cells, EDTA omitted.
For assay [3] the target is unchanged. Put plainly: adhesion of T51 cells to CD28+ CHO cells, mAb 9.3 at 10 µg/ml without EDTA.
The target is the same in assay [4]. Nature of the assay: inhibition of adhesion of PM lymphoblastoid cells to CD28+ CHO monolayers.
Assay [5] has the same target. Put plainly: adhesion of T51 cells to CD28+ CHO cells, mAb 9.3 at 10 µg/ml plus EDTA.
For assay [6], the target named is B7 antigen (human) (UniProt P33681). Put plainly: flow cytometry, direct staining of Raji cells (BL, positive for CD28 adhesion). Background: Flow cytometry measures light scatter and fluorescence of single cells or particles in a stream.
Sequence of B7 antigen (human) (P33681 35-288): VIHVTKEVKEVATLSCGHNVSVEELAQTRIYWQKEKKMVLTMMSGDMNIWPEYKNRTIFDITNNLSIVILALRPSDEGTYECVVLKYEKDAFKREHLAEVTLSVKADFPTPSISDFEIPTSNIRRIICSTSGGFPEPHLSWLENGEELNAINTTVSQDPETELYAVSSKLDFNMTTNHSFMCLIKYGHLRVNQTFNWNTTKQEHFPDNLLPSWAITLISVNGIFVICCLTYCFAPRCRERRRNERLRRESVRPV
Assay [7] shares this target. Put plainly: flow cytometry, Daudi cells; (- cold) minus (+ cold).
Assay [8] shares this target. Put plainly: flow cytometry, HL60 cells preincubated with unlabeled BB-1.
Assay [9] shares this target. Put plainly: flow cytometry, Raji cells; (- cold) minus (+ cold).
Assay [10] shares this target. Nature of the assay: cell-based or functional assay.
For assay [11] the target is unchanged. Put plainly: flow cytometry, 5E1 cells preincubated with unlabeled BB-1.
The target is the same in assay [12]. Put plainly: flow cytometry, direct staining of HSB2 cells (T-ALL, negative for CD28 adhesion; presence of B7 not shown).
The target is the same in assay [13]. Nature of the assay: flow cytometry, Jijoye cells; (- cold) minus (+ cold).
Assay [14] shares this target. Put plainly: flow cytometry, Namalwa cells (negative for CD28 adhesion); (- cold) minus (+ cold).
Assay [15] has the same target. Nature of the assay: flow cytometry, direct staining of THP-1 cells (AML, negative for CD28 adhesion; presence of B7 not shown).
For assay [16] the target is unchanged. Put plainly: flow cytometry, 5E1 cells; (- cold) minus (+ cold).
The target is the same in assay [17]. Nature of the assay: adhesion of T51 cells to CD28+ CHO cells, screen of a mAb panel.
For assay [18] the target is unchanged. Put plainly: flow cytometry, direct staining of HL60 cells (AML, negative for CD28 adhesion; presence of B7 not shown).
The target is the same in assay [19]. Put plainly: flow cytometry, THP-1 cells preincubated with unlabeled BB-1.
The target is the same in assay [20]. Put plainly: flow cytometry, direct staining of Namalwa cells (BL, negative for CD28 adhesion; presence of B7 not shown).
For assay [21] the target is unchanged. Nature of the assay: flow cytometry, Raji cells preincubated with unlabeled BB-1.
Assay [22] shares this target. Put plainly: adhesion of Jijoye cells to CD28+ CHO cells in 10 mM EDTA, BB-1 below 1 µg/ml.
The target is the same in assay [23]. Put plainly: flow cytometry, Daudi cells preincubated with unlabeled BB-1.
Assay [24] shares this target. Put plainly: flow cytometry, 1A2 cells preincubated with unlabeled BB-1.
The target is the same in assay [25]. Nature of the assay: flow cytometry, direct staining of 1A2 cells (B-LCL, negative for CD28 adhesion; presence of B7 not shown).
The target is the same in assay [26]. Put plainly: flow cytometry, Jijoye cells preincubated with unlabeled BB-1.
Assay [27] shares this target. Put plainly: flow cytometry, direct staining of 5E1 cells (B-LCL, positive for CD28 adhesion).
The target is the same in assay [28]. Put plainly: flow cytometry, T51 cells preincubated with unlabeled BB-1.
The target is the same in assay [29]. Nature of the assay: flow cytometry, CEM cells preincubated with unlabeled BB-1.
The target is the same in assay [30]. Put plainly: flow cytometry, direct staining of Daudi cells (BL, positive for CD28 adhesion).
Assay [31] has the same target. Put plainly: flow cytometry, T51 cells; (- cold) minus (+ cold).
Assay [32] shares this target. Put plainly: flow cytometry, direct staining of Jijoye cells (BL, positive for CD28 adhesion).
For assay [33] the target is unchanged. Nature of the assay: flow cytometry, direct staining of T51 cells (B-LCL, positive for CD28 adhesion).
The target is the same in assay [34]. Put plainly: flow cytometry, HSB2 cells preincubated with unlabeled BB-1.

For the substance “B7Ig fusion protein (from UniProt P33681 35-215; P01857 99-330) (Fc fusion)”, in the assay with CD28 receptor (human) [1], the [3H]-T incorporation, PBL, + Anti-CD3, B7Ig (immob.), Exp. 1 was found to be 174000 cpm and the [3H]-T incorporation, PBL, - Anti-CD3, B7Ig (immob.), Exp. 1 came to 100 cpm.
As for “Monoclonal antibody (mAb) 9.3 (anti-CD28)”, in the assay with CD28 receptor (human) [1], the [3H]-T incorporation, PBL, + Anti-CD3, mAb 9.3 (immob.), Exp. 1 came to 137000 cpm; the [3H]-T incorporation, PBL, + Anti-CD3, mAb 9.3 (soln.), Exp. 1 turned out to be 156000 cpm; the [3H]-T incorporation, PBL, + Anti-CD3, mAb 9.3 (soln.), Exp. 2 is 75800 cpm; the [3H]-T incorporation, PBL, - Anti-CD3, mAb 9.3 (immob.), Exp. 1 turned out to be 100 cpm. In the assay with CD28 receptor (human) [1], this substance came in with a [3H]-T incorporation, PBL, - Anti-CD3, mAb 9.3 (soln.), Exp. 1 of 300 cpm and a [3H]-T incorporation, PBL, - Anti-CD3, mAb 9.3 (soln.), Exp. 2 of 400 cpm. In addition, the percent of adhesion blocked with CD28 receptor (human) [2] worked out at 40%. In the assay with CD28 receptor (human) [3], this substance returned a percent reduction of adhesion of 62%. Further, the IC50 with CD28 receptor (human) [4] was 10 nM. In addition, the percent reduction of adhesion with CD28 receptor (human) [5] is 93%.
On to mAb 9.3 (Fab fragments), for which, in the assay with CD28 receptor (human) [1], the [3H]-T incorporation, PHA blasts stimulated with B7+ CHO (40:1), with 9.3 Fab at 10 µg/ml amounted to 132000 cpm.
Take mAb BB-1 (anti-B7) (antibody): the mean fluorescence (linear units), - COLD with B7 antigen (human) [6] came to 7.1 linear units; in the assay with B7 antigen (human) [12] it was 2.3 linear units; with B7 antigen (human) [15], 3.1 linear units; with B7 antigen (human) [18] it was 3.1 linear units; in the assay with B7 antigen (human) [20], 3.8 linear units; in the assay with B7 antigen (human) [25] it was 4.5 linear units. For the same substance, the mean fluorescence (linear units), - COLD with B7 antigen (human) [27] was 13 linear units; with B7 antigen (human) [30], 6.4 linear units; in the assay with B7 antigen (human) [32], 17.8 linear units; in the assay with B7 antigen (human) [33], 16.4 linear units. The SPECIFIC BINDING (mean fluorescence, linear units) with B7 antigen (human) [7] was determined as 3.6 linear units; in the assay with B7 antigen (human) [9], 4.3 linear units; in the assay with B7 antigen (human) [13], 15 linear units; in the assay with B7 antigen (human) [14], 1.6 linear units; in the assay with B7 antigen (human) [16] it was 10.6 linear units; in the assay with B7 antigen (human) [31], 13.4 linear units. Also, the mean fluorescence (linear units), + COLD in the assay with B7 antigen (human) [8] was 3.1 linear units; in the assay with B7 antigen (human) [11], 2.4 linear units; in the assay with B7 antigen (human) [19], 3 linear units; with B7 antigen (human) [21] it was 2.8 linear units; with B7 antigen (human) [23], 2.8 linear units; with B7 antigen (human) [24] it was 4.3 linear units. Further, the mean fluorescence (linear units), + COLD came to 2.8 linear units with B7 antigen (human) [26], 3 linear units with B7 antigen (human) [28], 1.9 linear units in the assay with B7 antigen (human) [29] and 2.3 linear units with B7 antigen (human) [34]. Also, in the assay with B7 antigen (human) [10], the [3H]-T incorporation, PHA blasts stimulated with B7+ CHO (40:1), with BB-1 at 10 µg/ml was 98300 cpm. In addition, in the assay with B7 antigen (human) [17], the percent of CD28-mediated adhesion blocked was greater than 30%. Further, the percent of adhesion blocked in the assay with B7 antigen (human) [22] worked out at 60%.
